{"source": "paper PMC4557955", "note": "pKd: −log10 of the molar value.", "data": [{"test_system": "BPs gp33103 repressor (short, prophage-encoded form) (Mycobacteriophage BPs)", "test": "EMSA", "details": "EMSA: 20 mM Tris pH 7.5, 10 mM EDTA, 25 mM NaCl, 10 mM spermidine, 1 mM DTT, 1 ug calf thymus DNA in 10 ul, room temperature 30 min, 5% native gel …", "values": [{"substance": "5-6 intergenic region (O6)", "pKd": 5.56}, {"substance": "26-27 intergenic region (O27)", "pKd": 6.05}, {"substance": "33-34 intergenic region wild type (366 bp)", "pKd": 5.58}, {"substance": "54-55 intergenic region (O55)", "pKd": 5.59}, {"substance": "60-61 intergenic region (O61)", "pKd": 5.47}, {"substance": "CAAACGCAAAAGTTCGGGCGTGGCGCATTTTCCAATAGAC (double strand) [TIR-5]", "pKd": 4.90}, {"substance": "CACACACGACGCTTGCACCGCGACATATGTCGGTTTTGCAGACGTGCAGGTT (double strand) [O6-L]", "pKd": 4.98}, {"substance": "GCATCACGGACGCTGCTATCCGACATATGTCGTGGATGATCGGGATATGGCC (double strand) [O27-R]", "pKd": 4.96}, {"substance": "GCATTTTCCAATAGACCGCATATGTCGCTATGTTGGTGCACA (double strand) [O27-L]", "pKd": 4.41}, {"substance": "GCATTTTCCAATAGACGACATATGTGCCTATGTTGGTGCACA (double strand) [O61-R]", "pKd": 4.71}, {"substance": "TCCAATAGACGACATATGTCGCT (double strand) [TIR-6]", "pKd": 5.02}, {"substance": "TCGGACATGGTGAACGCTTGCGACATATGTCGCCAATGTGTGCATCTTTGCA (double strand) [O55-L]", "pKd": 5.07}]}]}
